The supplement of paper PMC7877785
± gives the uncertainty stated by the source.

Experiment: self-splicing fitness, log relative to wild type (ln ratio); higher = more splicing; Tetrahymena group I intron in knt gene, E. coli kanamycin selection, DiMSum; sequences stand for … in CUCUCU…GGAGGGAAAAGUUAUCAGGCAUGCACCUGGUAGCUAGUCUUUAAACCAAUAGAUUGCAUCGGUUUAAAAGGCAAGACCGUCAAAUUGCGGGAAAGGGGUCAACAGCCGUUCAGUACCAAGUCUCAGGGGAAACUUUGAGAUGGCCUUGCAAAGGGUAUGGUAAUAAGCUGACGGACAUGGUCCUAACCACGCAGCCAAGUCCUAAGUCAACAGAUCUUCUGUUGAUAUGGAUGCAGUUCACAGACUAAAUGUCGGUCGGGGAAGAUGUAUUCUUCUCAUAAGAUAUAGUCGGACCUCUCCUUAAUGGGAGCUAGCGGAUGAAGUGAUGCAACACUGGAGCCGCUGGGAACUAAUUUGUAUGCGAAAGUAUAUUGAUUAGUUUUGGAGUACUCGUGGUCG
Procedure, shortened: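 The eight P1ex-region nucleotides of an intron in the knt kanamycin-resistance gene on pET-22b(+) were all randomised and the library put into E. coli BL21(DE3). Six replicate transformations were grown overnight at 37°C or 30°C on LB agar with or without 25 μg/mL kanamycin, together with 100 μg/mL carbenicillin, 50 μM IPTG and 0.2% rhamnose. Colonies were pooled and amplicon-sequenced on an Illumina HiSeq 2500. Fitness from DiMSum is the error-weighted combination of wild-type-normalised replicate fold changes, kanamycin over none.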

Sequence	self-splicing fitness (ln) (30 °C)	self-splicing fitness (ln) (37 °C)
GCAUAGCAAUAUUACGUAUA	-3.23 ± 0.29	-1.52 ± 0.24
CAUUAGCAAUAUUACGAUUU	-2.32 ± 0.13	-1.56 ± 0.15
CCCAAGCAAUAUUACGGAGU	-3.37 ± 0.11	-2.47 ± 0.11
GGGCAGCAAUAUUACGGAAU	-1.49 ± 0.11	-1.3 ± 0.19
CUUCAGCAAUAUUACGGUUC	-3.39 ± 0.2	-1.69 ± 0.18
UCACAGCAAUAUUACGGCCA	-1.78 ± 0.28	-1.19 ± 0.21
UGUAAGCAAUAUUACGCAAU	-3.44 ± 0.18	-3.36 ± 0.2
AGCCAGCAAUAUUACGGCAG	-1.01 ± 0.065	-1.18 ± 0.092
CUAUAGCAAUAUUACGAGUA	-2.86 ± 0.41	-1.62 ± 0.23
UCCUAGCAAUAUUACGUACU	-3.41 ± 0.3	-2 ± 0.26
UUCAAGCAAUAUUACGUCAG	-3.43 ± 0.2	-1.23 ± 0.14
CCCAAGCAAUAUUACGGAAA	-2.22 ± 0.15	-3.47 ± 0.3
ACCCAGCAAUAUUACGUGUG	-2.63 ± 0.062	-1.07 ± 0.064
GCAGAGCAAUAUUACGGUAU	-3.23 ± 0.15	
CAUAAGCAAUAUUACGAGGU	-2.81 ± 0.16	-2.6 ± 0.18
CGCGAGCAAUAUUACGCGUU	-3.07 ± 0.25	-2.74 ± 0.34
AUCAAGCAAUAUUACGUCGG	-3.01 ± 0.13	-1.29 ± 0.12
UCAAAGCAAUAUUACGCUCC		-2.37 ± 0.48
GAAGAGCAAUAUUACGACAG	-3.36 ± 0.29	-2.76 ± 0.28
UAAAAGCAAUAUUACGCAAA	-3.71 ± 0.4	-0.788 ± 0.18
GAUUAGCAAUAUUACGUACC	-1.71 ± 0.22	0.563 ± 0.21
GAGGAGCAAUAUUACGUUGG		-1.46 ± 0.42
UAGGAGCAAUAUUACGUUGU	-3.31 ± 0.26	-2.35 ± 0.23
ACCAAGCAAUAUUACGUAUC	-3.4 ± 0.1	-2.34 ± 0.11
GAGAAGCAAUAUUACGGCCU	-0.28 ± 0.07	0.2 ± 0.089
UUCAAGCAAUAUUACGCUUG	-2.15 ± 0.35	-1.01 ± 0.26

Sequence	self-splicing fitness (ln) (30 °C)	self-splicing fitness (ln) (37 °C)
UGUAAGCAAUAUUACGGAGG	-3.23 ± 0.21	-3.5 ± 0.33
UUGCAGCAAUAUUACGACGA	0.0944 ± 0.089	0.407 ± 0.12
UUUUAGCAAUAUUACGCGCG	-0.432 ± 0.11	-0.122 ± 0.15
CAACAGCAAUAUUACGCUCC	-1.72 ± 0.098	-0.675 ± 0.14
UUUAAGCAAUAUUACGACGA	0.228 ± 0.089	0.29 ± 0.11
CAUAAGCAAUAUUACGUUUA	-2.97 ± 0.23	-2.42 ± 0.28
CUGGAGCAAUAUUACGCACG	-0.0736 ± 0.32	-1.08 ± 0.29
GAUGAGCAAUAUUACGGUCG	-2.37 ± 0.12	-0.405 ± 0.12
UGACAGCAAUAUUACGGGCU	-2.75 ± 0.16	-1.57 ± 0.097
CACUAGCAAUAUUACGGCAG	-0.257 ± 0.049	0.189 ± 0.066
CAAUAGCAAUAUUACGGAAC	-3.98 ± 0.33	-3.27 ± 0.47
GAUAAGCAAUAUUACGUUCG	-1.42 ± 0.098	-1.05 ± 0.14
CGGAAGCAAUAUUACGGAUG	-2.02 ± 0.073	-0.785 ± 0.086
ACAAAGCAAUAUUACGGUAU	-3.56 ± 0.13	-1.35 ± 0.099
AUAAAGCAAUAUUACGCCAU	-0.694 ± 0.095	-0.176 ± 0.14
CGAAAGCAAUAUUACGCUUU	-3.54 ± 0.35	-2.7 ± 0.41
GCCGAGCAAUAUUACGACUC	-3.37 ± 0.48	0.198 ± 0.28
AUUAAGCAAUAUUACGCACU	-0.21 ± 0.13	-0.414 ± 0.13
UAAAAGCAAUAUUACGUUGG	-2.36 ± 0.1	-1.42 ± 0.12
CGCUAGCAAUAUUACGCGCA	-1.81 ± 0.17	-1.52 ± 0.17
CAACAGCAAUAUUACGGGUA	-3.03 ± 0.12	-1.22 ± 0.084
CCUGAGCAAUAUUACGCCGG		-1.71 ± 0.39
UCAGAGCAAUAUUACGGGAG	-2.82 ± 0.21	-2.14 ± 0.34
GGCGAGCAAUAUUACGGCGU	-2.49 ± 0.21	-1.1 ± 0.2
CCUUAGCAAUAUUACGCUGA	-3.23 ± 0.47	
CCGCAGCAAUAUUACGCUAG	-1.53 ± 0.1	-2.05 ± 0.12

Sequence	self-splicing fitness (ln) (30 °C)	self-splicing fitness (ln) (37 °C)
AGCUAGCAAUAUUACGGACA	-1.06 ± 0.12	0.0203 ± 0.15
CGUAAGCAAUAUUACGUCCG	-0.78 ± 0.059	-0.649 ± 0.08
CUGUAGCAAUAUUACGUCAG	-3.53 ± 0.23	-2.88 ± 0.34
ACAGAGCAAUAUUACGAAUA	-3.45 ± 0.32	-2.2 ± 0.35
CCGCAGCAAUAUUACGAUGU	-3.21 ± 0.14	-2.83 ± 0.17
UGCGAGCAAUAUUACGAGGA	-3.56 ± 0.18	-2.75 ± 0.18
GUUAAGCAAUAUUACGGUCG	-1.32 ± 0.066	-0.767 ± 0.094
AGUCAGCAAUAUUACGUAGC	-2.97 ± 0.13	-0.778 ± 0.097
CGGCAGCAAUAUUACGCUCG		-2.93 ± 0.32
UUGUAGCAAUAUUACGGACC	-2.38 ± 0.25	-1.46 ± 0.34
GGCUAGCAAUAUUACGAAAC		-0.972 ± 0.4
CCGUAGCAAUAUUACGGGGA	-3.45 ± 0.25	-3.11 ± 0.25
GGGCAGCAAUAUUACGGUUC	-1.53 ± 0.11	-1.93 ± 0.13
AGAAAGCAAUAUUACGUUGG	-3.2 ± 0.2	-0.323 ± 0.12
ACUCAGCAAUAUUACGCUCU	-0.15 ± 0.067	0.559 ± 0.094
CUCUAGCAAUAUUACGCCUU	-1.58 ± 0.18	
ACAUAGCAAUAUUACGGCUU	-0.628 ± 0.09	0.133 ± 0.11
UCGCAGCAAUAUUACGCGUC	-3.42 ± 0.16	-1.8 ± 0.14
GUAUAGCAAUAUUACGUUCA	-1.06 ± 0.2	-0.424 ± 0.23
AAAAAGCAAUAUUACGCUAC	-3.43 ± 0.18	-3.23 ± 0.24
GCUCAGCAAUAUUACGCACC	-1.94 ± 0.23	0.598 ± 0.24
CAACAGCAAUAUUACGCCCG	-0.408 ± 0.098	0.465 ± 0.12
CGGAAGCAAUAUUACGGUGA	-1.64 ± 0.16	-2.07 ± 0.22
CGUGAGCAAUAUUACGCAAC	-2.77 ± 0.36	-2.18 ± 0.33
UCAAAGCAAUAUUACGACUU	-4 ± 0.23	-2.36 ± 0.17
